Experimental data published in US20260250338A1 (Molecular Partners, published 2026).

B1: Construct No. 10 (SEQ ID NO: 16), 2D (CD16a × HER2), DARPin #3 with C-terminal HER2 binder of SEQ ID NO: 8 (designed binder)
chain: MRGSHHHHHHGSDLGKKLLQAARAGQLDEVRELLKAGADVNAKDEQGRTPLHIAAASGHLEIVEVLLKAGADVNAKDWFGITPLHIAAWWGHLEIVEVLLKAGADVNAKDQEGRTPLHIAAAIGHLEIVEVLLKAGADVNAQDKSGKTPADLAARAGHQDIAEVLQKAAGSPTPTPTTPTPTPTTPTPTPTGSDLGKKLLEAARAGQDDEVRELLKAGADVNAKDEYGLTPLYLATAHGHLEIVEVLLKAGADVNAVDAIGFTPLHLAAFIGHLEIAEVLLKAGADVNAQDKFGKTPADIAAGAGNEDIAEVLQKAA
B2: Construct No. 6 (SEQ ID NO: 17), 2D (CD16a × HER2), DARPin #3 with C-terminal HER2 binder of SEQ ID NO: 9 (designed binder)
chain: MRGSHHHHHHGSDLGKKLLQAARAGQLDEVRELLKAGADVNAKDEQGRTPLHIAAASGHLEIVEVLLKAGADVNAKDWFGITPLHIAAWWGHLEIVEVLLKAGADVNAKDQEGRTPLHIAAAIGHLEIVEVLLKAGADVNAQDKSGKTPADLAARAGHQDIAEVLQKAAGSPTPTPTTPTPTPTTPTPTPTGSDLGIKLLFAAAKGQDDEVRELLKAGADVNAKDFQGVTPLHIAAQSGHLEIVEVLLKAGADVNAKDVTGDTPLHLAAQHGHLEIVEVLLKAGADVNAQDERGWTPADLAADWGHEDIAEVLQKAA
notes: Bispecific DARPin; also called Construct 6
B3: Construct No. 11 (SEQ ID NO: 18), 2D (CD16a × HER2), DARPin #1 with C-terminal HER2 binder of SEQ ID NO: 9 (designed binder)
chain: MRGSHHHHHHGSDLGKKLLQAARAGQLDEVRELLKAGADVNAKDWSGFTPLHIAAVQGHLEIVEVLLKAGADVNAKDHSGWTPLHVAAFSGHLEIVEVLLKAGADVNAKDATGQTPLHLAARTGHLEIVEVLLKAGADVNAQDKSGKTPADLAARAGHQDIAEVLQKAAGSPTPTPTTPTPTPTTPTPTPTGSDLGIKLLFAAAKGQDDEVRELLKAGADVNAKDFQGVTPLHIAAQSGHLEIVEVLLKAGADVNAKDVTGDTPLHLAAQHGHLEIVEVLLKAGADVNAQDERGWTPADLAADWGHEDIAEVLQKAA
B4: Construct No. 4 (SEQ ID NO: 15), 2D (HER2 × CD16a), DARPin #3 with N-terminal HER2 binder of SEQ ID NO: 9 (designed binder)
chain: MRGSHHHHHHGSDLGIKLLFAAAKGQDDEVRELLKAGADVNAKDFQGVTPLHIAAQSGHLEIVEVLLKAGADVNAKDVTGDTPLHLAAQHGHLEIVEVLLKAGADVNAQDERGWTPADLAADWGHEDIAEVLQKAAGSPTPTPTTPTPTPTTPTPTPTGSDLGKKLLQAARAGQLDEVRELLKAGADVNAKDEQGRTPLHIAAASGHLEIVEVLLKAGADVNAKDWFGITPLHIAAWWGHLEIVEVLLKAGADVNAKDQEGRTPLHIAAAIGHLEIVEVLLKAGADVNAQDKSGKTPADLAARAGHQDIAEVLQKAA
notes: Bispecific DARPin; also called Construct 4
B5: Construct No. 8 (SEQ ID NO: 12), 2D (CD16a × HER2), DARPin #2 with C-terminal HER2 binder of SEQ ID NO: 8 (designed binder)
chain: MRGSHHHHHHGSDLGQKLLRAAKKGQDDEVRELLKAGADVNAKDEQGWTPLHIAAWKGHLEIVEVLLKAGADVNAKDVFDWTPLHVAAHFGHLEIVEVLLKAGADVNAQDRAGETPADLAAQAGHEDIAEVLQKAAGSPTPTPTTPTPTPTTPTPTPTGSDLGKKLLEAARAGQDDEVRELLKAGADVNAKDEYGLTPLYLATAHGHLEIVEVLLKAGADVNAVDAIGFTPLHLAAFIGHLEIAEVLLKAGADVNAQDKFGKTPADIAAGAGNEDIAEVLQKAA
notes: Bispecific DARPin; also called Construct 8
B6: Construct No. 9 (SEQ ID NO: 14), 2D (HER2 × CD16a), DARPin #3 with N-terminal HER2 binder of SEQ ID NO: 8 (designed binder)
chain: MRGSHHHHHHGSDLGKKLLEAARAGQDDEVRELLKAGADVNAKDEYGLTPLYLATAHGHLEIVEVLLKAGADVNAVDAIGFTPLHLAAFIGHLEIAEVLLKAGADVNAQDKFGKTPADIAAGAGNEDIAEVLQKAAGSPTPTPTTPTPTPTTPTPTPTGSDLGKKLLQAARAGQLDEVRELLKAGADVNAKDEQGRTPLHIAAASGHLEIVEVLLKAGADVNAKDWFGITPLHIAAWWGHLEIVEVLLKAGADVNAKDQEGRTPLHIAAAIGHLEIVEVLLKAGADVNAQDKSGKTPADLAARAGHQDIAEVLQKAA
B7: Construct No. 5 (SEQ ID NO: 11), 2D (HER2 × CD16a), DARPin #2 with N-terminal HER2 binder of SEQ ID NO: 9 (designed binder)
chain: MRGSHHHHHHGSDLGIKLLFAAAKGQDDEVRELLKAGADVNAKDFQGVTPLHIAAQSGHLEIVEVLLKAGADVNAKDVTGDTPLHLAAQHGHLEIVEVLLKAGADVNAQDERGWTPADLAADWGHEDIAEVLQKAAGSPTPTPTTPTPTPTTPTPTPTGSDLGQKLLRAAKKGQDDEVRELLKAGADVNAKDEQGWTPLHIAAWKGHLEIVEVLLKAGADVNAKDVFDWTPLHVAAHFGHLEIVEVLLKAGADVNAQDRAGETPADLAAQAGHEDIAEVLQKAA
notes: Bispecific DARPin; also called Construct 5
B8: Construct No. 21 (SEQ ID NO: 90), CD117 × CD16a, CD117 binder SEQ ID NO: 85 and DARPin #2 (designed binder)
chain: MRGSHHHHHHGSDLGAKLLKAAQSGQDDEVRILLAAGADVNAKDKDGYTPLHLAAREGHLEIVEVLLKAGSDVNAKDYYGETPLHQAAEYGHLEIVEVLLKAGADVNAQDEWGATPADLAAQQGHEDIAEVLQKAAGSPTPTPTTPTPTPTTPTPTPTGSDLGQKLLRAAKKGQDDEVRELLKAGADVNAKDEQGWTPLHIAAWKGHLEIVEVLLKAGADVNAKDVFDWTPLHVAAHFGHLEIVEVLLKAGADVNAQDRAGETPADLAAQAGHEDIAEVLQKAA
B9: Construct No. 23 (SEQ ID NO: 92), CD117 × CD16a, CD117 binder SEQ ID NO: 87 and DARPin #2 (designed binder)
chain: MRGSHHHHHHGSDLGKKLLKAASWGQDDEVRILLAAGADVNAKDNSGWTPLHAAAWYGHLEIVEVLLKAGADVNAKDKTGLTPLHKAAHVGHLEIVEVLLKAGADVNAQDEWGATPADLAASTGHEDIAEVLQKAAGSPTPTPTTPTPTPTTPTPTPTGSDLGQKLLRAAKKGQDDEVRELLKAGADVNAKDEQGWTPLHIAAWKGHLEIVEVLLKAGADVNAKDVFDWTPLHVAAHFGHLEIVEVLLKAGADVNAQDRAGETPADLAAQAGHEDIAEVLQKAA
B10: Construct No. 24 (SEQ ID NO: 93), CD117 × CD16a, CD117 binder SEQ ID NO: 88 and DARPin #2 (designed binder)
chain: MRGSHHHHHHGSDLGHKLLHAAAWGQDDEVRILLAAGADVNAKDQSGWTPLHVAAWYGHLEIVEVLLKAGADVNAKDLKGETPLHLAALVGHLEIVEVLLKAGADVNAQDIAGDTPADLAAIAGHEDIAEVLQKAAGSPTPTPTTPTPTPTTPTPTPTGSDLGQKLLRAAKKGQDDEVRELLKAGADVNAKDEQGWTPLHIAAWKGHLEIVEVLLKAGADVNAKDVFDWTPLHVAAHFGHLEIVEVLLKAGADVNAQDRAGETPADLAAQAGHEDIAEVLQKAA
B11: Construct No. 22 (SEQ ID NO: 91), CD117 × CD16a, CD117 binder SEQ ID NO: 86 and DARPin #2 (designed binder)
chain: MRGSHHHHHHGSDLGKKLLQAARAGQLDEVRELLKAGADVNAKDVYGLTPLHLAAREGHLEIVEVLLKAGADVNAKDAYGETPLHLAAEAGHLEIVEVLLKAGADVNAKDEWGETPLNVAARAGHQDIAEVLQKAAGSPTPTPTTPTPTPTTPTPTPTGSDLGQKLLRAAKKGQDDEVRELLKAGADVNAKDEQGWTPLHIAAWKGHLEIVEVLLKAGADVNAKDVFDWTPLHVAAHFGHLEIVEVLLKAGADVNAQDRAGETPADLAAQAGHEDIAEVLQKAA
B12: Construct No. 20 (SEQ ID NO: 89), CD117 × CD16a, CD117 binder SEQ ID NO: 84 and DARPin #2 (designed binder)
chain: MRGSHHHHHHGSDLGQKLLKAAQYGQDDEVRILLAAGADVNAKDWAGKTPLHVAAEAGHLEIVEVLLKAGADVNAKDKAGETPLHLAAEQGHLEIVEVLLKAGADVNAQDEWGQTPADLAAYYGLEDIAEVLQKAAGSPTPTPTTPTPTPTTPTPTPTGSDLGQKLLRAAKKGQDDEVRELLKAGADVNAKDEQGWTPLHIAAWKGHLEIVEVLLKAGADVNAKDVFDWTPLHVAAHFGHLEIVEVLLKAGADVNAQDRAGETPADLAAQAGHEDIAEVLQKAA

Target: T1, CD16aV allotype of human CD16a expressed on Jurkat-Lucia-NFAT-CD16 Reporter cells (InvivoGen) (human, UniProt P08637 17-254)
Assay: cell-based or functional assay

T1 sequence (P08637 17-254 F176V): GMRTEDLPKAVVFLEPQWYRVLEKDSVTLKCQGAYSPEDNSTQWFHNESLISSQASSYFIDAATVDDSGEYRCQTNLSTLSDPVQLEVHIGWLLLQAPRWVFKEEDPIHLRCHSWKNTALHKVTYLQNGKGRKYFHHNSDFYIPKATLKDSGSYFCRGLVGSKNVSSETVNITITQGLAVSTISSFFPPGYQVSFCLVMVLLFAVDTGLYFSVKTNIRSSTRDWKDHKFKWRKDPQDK

| Binder | EC50 (pM), ADCC reporter assay (luminescence), SKOV3 target cells, E:T 5:1, 5 h [pM] |
| --- | --- |
| B1 | 24 |
| B2 | 3.5 |
| B3 | 4.1 |
| B4 | 0.7 |
| B5 | 0.24 |
| B6 | 1.6 |
| B7 | 0.39 |

Target: T1, CD16aV allotype of human CD16a …
Assay: cell-based or functional assay
Remark: another data set of the same source

| Binder | EC50 (pM), DDCC reporter assay (luminescence), Kasumi-1 target cells, E:T 1:1, 24 h [pM] | Top (RLU), DDCC reporter assay (luminescence), Kasumi-1 target cells [RLU] |
| --- | --- | --- |
| B8 | 32.3 | 23200 |
| B9 | 120 | 7870 |
| B10 | 96.1 | 8470 |
| B11 | 25.2 | 22000 |
| B12 | 86.2 | 26500 |

Target: T2, full length human CD16b stably expressed on transduced WT Jurkat cells (human, UniProt O75015 17-200)
T2 construct: whole, on cells; also called CD16b expressing cells; Jurkat CD16b
Assay: flow cytometry on Jurkat-CD16b cells, serial dilutions, detection with Penta-His Alexa Fluor 647

T2 sequence (O75015 17-200): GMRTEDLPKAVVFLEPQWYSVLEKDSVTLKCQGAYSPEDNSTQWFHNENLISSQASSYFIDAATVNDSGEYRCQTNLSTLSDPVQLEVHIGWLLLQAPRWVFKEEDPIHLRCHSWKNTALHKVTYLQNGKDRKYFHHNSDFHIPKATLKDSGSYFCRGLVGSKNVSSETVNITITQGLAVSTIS

| Binder | binding result |
| --- | --- |
| B2 | no binding (tested: 1000 nM) |
| B7 | no binding (tested: 1000 nM) |

Target: T2, full length human CD16b stably …
Assay: flow cytometry on Jurkat-CD16b cells, 5-fold serial dilutions, detection with Penta-His Alexa Fluor 488
Method: Serial dilutions (5-fold) of the constructs were incubated 30 min at 4° C. with 50000 cells in a 96-well plate. […] Cold buffer was added, then cells were spun down prior to supernatant removal. Cells were then fixed with Cell fix buffer (BD) and signal was measured by flow cytometry.

| Binder | binding result |
| --- | --- |
| B4 | no binding (tested: 1000 nM) |

Target: T3, CD32a expressed on Jurkat-NFAT-CD32a reporter cells (Invivogen jktl-nfat-cd32) (UniProt P12318 34-317, limits assumed)
T3 construct: whole, on cells; also called Jurkat-Lucia NFAT-CD32a Reporter cells; Fc receptor CD32a
T3 sequence (looked up): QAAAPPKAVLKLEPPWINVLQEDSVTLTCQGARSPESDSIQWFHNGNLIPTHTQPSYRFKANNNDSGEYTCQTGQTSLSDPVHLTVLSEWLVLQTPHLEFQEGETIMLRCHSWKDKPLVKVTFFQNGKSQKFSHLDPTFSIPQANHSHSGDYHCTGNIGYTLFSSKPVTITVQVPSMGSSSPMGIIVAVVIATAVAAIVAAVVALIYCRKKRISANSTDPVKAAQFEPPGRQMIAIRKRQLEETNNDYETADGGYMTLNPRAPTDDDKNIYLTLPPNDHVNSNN
Assay: flow cytometry on Jurkat-NFAT-CD32a cells, 4-fold serial dilutions, detection with anti-DARPin 1.1.1 antibody
Method: Serial dilutions (4-fold) of the constructs were incubated 30 min at 4° C. with 50000 cells in a 96-well plate. Detection antibody (anti-DARPin 1.1.1 Alexa Fluor […]) was subsequently added to the wells (2 μg/ml diluted in FACS buffer) and incubated at 4° C. for 30 min. Cold buffer was added, then cells were spun down prior to supernatant removal. Cells were then fixed with Cell fix buffer (BD) and signal was measured by flow cytometry.

| Binder | binding result |
| --- | --- |
| B5 | no binding (tested: 400 nM) |
| B7 | no binding (tested: 400 nM) |
